Measurements from patent publication US20080300206.

Biological target: recombinant wild-type human alpha-synuclein

B1: MET (protein)
chain: KKRKQIKDLGSELVRYDARVHTPHLDRLVSARSVSPTTEMVSNESVDYRATFPEDQFPNSSQNGSCRQVQYPLTDMSPILTSGDSDISSPLLQNTVHIDLSALNPELVQAVQHVVIGPSSLIVHFNEVIGRGHFGCVYHGTLLDNDGKKIHCAVKSLNRITDIGEVSQFLTEGIIMKDFSHPNVLSLLGICLRSEGSPLVVLPYMKHGDLRNFIRNETHNPTVKDLIGFGLQVAKGMKYLASKKFVHRDLAARNCMLDEKFTVKVADFGLARDMYDKEYYSVHNKTGAKLPVKWMALESLQTQKFTTKSDVWSFGVLLWELMTRGAPPYPDVNTFDITVYLLQGRRLLQPEYCPDPLYEVMLKCWHPKAEMRPSFSELVSRISAIFSTFIGEHYVHVNATYVNVKCVAPYPSLLSSEDNADDEVDTRPASFWETS
in vitro kinase reaction, phosphorylation of alpha-synuclein: shown to be incapable of directly phosphorylating alpha-synuclein

B2: PLK3 (protein)
chain: MEPAAGFLSPRPFQRAAAAPAPPAGPGPPPSALRGPELEMLAGLPTSDPGRLITDPRSGRTYLKGRLLGKGGFARCYEATDTETGSAYAVKVIPQSRVAKPHQREKILNEIELHRDLQHRHIVRFSHHFEDADNIYIFLELCSRKSLAHIWKARHTLLEPEVRYYLRQILSGLKYLHQRGILHRDLKLGNFFITENMELKVGDFGLAARLEPPEQRKKTICGTPNYVAPEVLLRQGHGPEADVWSLGCVMYTLLCGSPPFETADLKETYRCIKQVHYTLPASLSLPARQLLAAILRASPRDRPSIDQILRHDFFTKGYTPDRLPISSCVTVPDLTPPNPARSLFAKVTKSLFGRKKKSKNHAQERDEVSGLVSGLMRTSVGHQDARPEAPAASGPAPVSLVETAPEDSSPRGTLASSGDGFEEGLTVATVVESALCALRNCIAFMPPAEQNPAPLAQPEPLVWVSKWVDYSNKFGFGYQLSSRRVAVLFNDGTHMALSANRKTVHYNPTSTKHFSFSVGAVPRALQPQLGILRYFASYMEQHLMKGGDLPSVEEVEVPAPPLLLQWVKTDQALLMLFSDGTVQVNFYGDHTKLILSGWEPLLVTFVARNRSACTYLASHLRQLGCSPDLRQRLRYALRLLRDRSPA
Fold Change in Percent Synuclein Phosphorylation, HEK-293 overexpression: 39.6 fold
Proportion of total synuclein that is phoshorylated at ser-129, HEK-293 overexpression, ELISA: 79.2%
in vitro biochemical assay, phosphorylation of synuclein: PLK2 and PLK3 having extremely robust phosphorylation of synuclein

B3: CDC7 cell division cycle 7-like 1 (CDC7L1) (protein)
chain: MEASLGIQMDEPMAFSPQRDRFQAEGSLKKNEQNFKLAGVKKDIEKLYEAVPQLSNVFKIEDKIGEGTFSSVYLATAQLQVGPEEKIALKHLIPTSHPIRIAAELQCLTVAGGQDNVMGVKYCFRKNDHVVIAMPYLEHESFLDILNSLSFQEVREYMLNLFKALKRIHQFGIVHRDVKPSNFLYNRRLKKYALVDFGLAQGTHDTKIELLKFVQSEAQQERCSQNKSHIITGNKIPLSGPVPKELDQQSTTKASVKRPYTNAQIQIKQGKDGKEGSVGLSVQRSVFGERNFNIHSSISHESPAVKLMKQSKTVDVLSRKLATKKKAISTKVMNSAVMRKTASSCPASLTCDCYATDKVCSICLSRRQQVAPRAGTPGFRAPEVLTKCPNQTTAIDMWSAGVIFLSLLSGRYPFYKASDDLTALAQIMTIRGSRETIQAAKTFGKSILCSKEVPAQDLRKLCERLRGMDSSTPKLTSDIQGHASHQPAISEKTDHKASCLVQTPPGQYSGNSFKKGDSNSCEHCFDEYNTNLEGWNEVPDEAYDLLDKLLDLNPASRITAEEALLHPFFKDMSL
in vitro kinase reaction, phosphorylation of alpha-synuclein: shown to be incapable of directly phosphorylating alpha-synuclein

B4: GRK2 (protein)
chain: MADLEAVLADVSYLMAMEKSKATPAARASKKILLPEPSIRSVMQKYLEDRGEVTFEKIFSQKLGYLLFRDFCLNHLEEARPLVEFYEEIKKYEKLETEEERVARSREIFDSYIMKELLACSHPFSKSATEHVQGHLGKKQVPPDLFQPYIEEICQNLRGDVFQKFIESDKFTRFCQWKNVELNIHLTMNDFSVHRIIGRGGFGEVYGCRKADTGKMYAMKCLDKKRIKMKQGETLALNERIMLSLVSTGDCPFIVCMSYAFHTPDKLSFILDLMNGGDLHYHLSQHGVFSEADMRFYAAEIILGLEHMHNRFVVYRDLKPANILLDEHGHVRISDLGLACDFSKKKPHASVGTHGYMAPEVLQKGVAYDSSADWFSLGCMLFKLLRGHSPFRQHKTKDKHEIDRMTLTMAVELPDSFSPELRSLLEGLLQRDVNRRLGCLGRGAQEVKESPFFRSLDWQMVFLQKYPPPLIPPRGEVNAADAFDIGSFDEEDTKGIKLLDSDQELYRNFPLTISERWQQEVAETVFDTINAETDRLEARKKAKNKQLGHEEDYALGKDCIMHGYMSKMGNPFLTQWQRRYFYLFPNRLEWRGEGEAPQSLLTMEEIQSVEETQIKERKCLLLKIRGGKQFILQCDSDPELVQWKKELRDAYREAQQLVQRVPKMKNKPRSPVVELSKVPLVQRGSANGL
S129 phosphorylation, immunoblot (11A5), rank of signal: CKI>GRK6>PLK2>GRK4>GRK5>GRK2
in vitro kinase reaction, phosphorylation of alpha-synuclein at serine 129: capable of phosphorylating alpha-synuclein specifically at serine 129 and did not phosphorylate serine 87 in vitro

B5: PLK4 (protein)
chain: MATCIGEKIEDFKVGNLLGKGSFAGVYRAESIHTGLEVAIKMIDKKAMYKAGMVQRVQNEVKIHCQLKHPSILELYNYFEDSNYVYLVLEMCHNGEMNRYLKNRVKPFSENEARHFMHQIITGMLYLHSHGILHRDLTLSNLLLTRNMNIKIADFGLATQLKMPHEKHYTLCGTPNYISPEIATRSAHGLESDVWSLGCMFYTLLIGRPPFDTDTVKNTLNKVVLADYEMPSFLSIEAKDLIHQLLRRNPADRLSLSSVLDHPFMSRNSSTKSKDLGTVEDSIDSGHATISTAITASSSTSISGSLFDKRRLLIGQPLPNKMTVFPKNKSSTDFSSSGDGNSFYTQWGNQETSNSGRGRVIQDAEERPHSRYLRRAYSSDRSGTSNSQSQAKTYTMERCHSAEMLSVSKRSGGGENEERYSPTDNNANIFNFFKEKTSSSSGSFERPDNNQALSNHLCPGKTPFPFADPTPQTETVQQWFGNLQINAHLRKTTEYDSISPNRDFQGHPDLQKDTSKNAWTDTKVKKNSDASDNAHSVKQQNTMKYMTALHSKPEIIQQECVFGSDPLSEQSKTRGMEPPWGYQNRTLRSITSPLVAHRLKPIRQKTKKAVVSILDSEEVCVELVKEYASQEYVKEVLQISSDGNTITIYYPNGGRGFPLADRPPSPTDNISRYSFDNLPEKYWRKYQYASRFVQLVRSKSPKITYFTRYAKCILMENSPGADFEVWFYDGVKIHKTEDFIQVIEKTGKSYTLKSESEVNSLKEEIKMYMDHANEGHRICLALESIISEEERKTRSAPFFPIIIGRKPGSTSSPKALSPPPSVDSNYPTRERASFNRMVMHSAASPTQAPILNPSMVTNEGLGLTTTASGTDISSNSLKDCLPKSAQLLKSVFVKNVGWATQLTSGAVWVQFNDGSQLVVQAGVSSISYTSPNGQTTRYGENEKLPDYIKQKLQCLSSILLMFSNPTPNFH
Fold Change in Percent Synuclein Phosphorylation, HEK-293 overexpression: 1 fold
Proportion of total synuclein that is phoshorylated at ser-129, HEK-293 overexpression, ELISA: 1.9%
in vitro biochemical assay, phosphorylation of synuclein: PLK4 exhibiting no ability to phosphorylate synuclein

B6: GRK4 (protein)
chain: MELENIVANSLLLKARQGGYGKKSGRSKKWKEILTLPPVSQCSELRHSIEKDYSSLCDKQPIGRRLFRQFCDTKPTLKRHIEFLDAVAEYEVADDEDRSDCGLSILDRFFNDKLAAPLPEIPPDVVTECRLGLKEENPSKKAFEECTRVAHNYLRGEPFEEYQESSYFSQFLQWKWLERQPVTKNTFRHYRVLGKGGFGEVCACQVRATGKMYACKKLQKKRIKKRKGEAMALNEKRILEKVQSRFVVSLAYAYETKDALCLVLTIMNGGDLKFHIYNLGNPGFDEQRAVFYAAELCCGLEDLQRERIVYRDLKPENILLDDRGHIRISDLGLATEIPEGQRVRGRVGTVGYMAPEVVNNEKYTFSPDWWGLGCLIYEMIQGHSPFKKYKEKVKWEEVDQRIKNDTEEYSEKFSEDAKSICRMLLTKNPSKRLGCRGEGAAGVKQHPVFKDINFRRLEANMLEPPFCPDPHAVYCKDVLDIEQFSVVKGIYLDTADEDFYARFATGCVSIPWQNEMIESGCFKDINKSESEEALPLDLDKNIHTPVSRPNRGFFYRLFRRGGCLTMVPSEKEVEPKQC
S129 phosphorylation, immunoblot (11A5), rank of signal: CKI>GRK6>PLK2>GRK4>GRK5>GRK2

B7: GRK7 (protein)
chain: MVDMGALDNLIANTAYLQARKPSDCDSKELQRRRRSLALPGLQGCAELRQKLSLNFHSLCEQQPIGRRLFRDFLATVPTFRKAATFLEDVQNWELAEEGPTKDSALQGLVATCASAPAPGNPQPFLSQAVATKCQAATTEEERVAAVTLAKAEAMAFLQEQPFKDFVTSAFYDKFLQWKLFEMQPVSDKYFTEFRVLGKGGFGEVCAVQVKNTGKMYACKKLDKKRLKKKGGEKMALLEKEILEKVSSPFIVSLAYAFESKTHLCLVMSLMNGGDLKFHIYNVGTRGLDMSRVIFYSAQIACGMLHLHELGIVYRDMKPENVLLDDLGNCRLSDLGLAVEMKGGKPITQRAGTNGYMAPEILMEKVSYSYPVDWFAMGCSIYEMVAGRTPFKDYKEKVSKEDLKQRTLQDEVKFQHDNFTEEAKDICRLFLAKKPEQRLGSREKSDDPRKHHFFKTINFPRLEAGLIEPPFVPDPSVVYAKDIAEIDDFSEVRGVEFDDKDKQFFKNFATGAVPIAWQEEIIETGLFEELNDPNRPTGCEEGNSSKSGVCLLL
S129 phosphorylation, immunoblot (11A5): Prominent signals came from all GRKs except for GRK7
in vitro kinase reaction, phosphorylation of alpha-synuclein at serine 129: capable of phosphorylating alpha-synuclein specifically at serine 129 and did not phosphorylate serine 87 in vitro
phosphorylation of AS in vitro: GRK 7 was not able to phosphorylate at appreciable levels

B8: G protein-coupled receptor kinase 6 (GRK6) (protein)
chain: MELENIVANTVLLKAREGGGGNRKGKSKKWRQMLQFPHISQCEELRLSLERDYHSLCERQPIGRLLFREFCATRPELSRCVAFLDGVAEYEVTPDDKRKACGRQLTQNFLSHTGPDLIPEVPRQLVTNCTQRLEQGPCKDLFQELTRLTHEYLSVAPFADYLDSIYFNRFLQWKWLERQPVTKNTFRQYRVLGKGGFGEVCACQVRATGKMYACKKLEKKRIKKRKGEAMALNEKQILEKVNSRFVVSLAYAYETKDALCLVLTLMNGGDLKFHIYHMGQAGFPEARAVFYAAEICCGLEDLHRERIVYRDLKPENILLDDHGHIRISDLGLAVHVPEGQTIKGRVGTVGYMAPEVVKNERYTFSPDWWALGCLLYEMIAGQSPFQQRKKKIKREEVERLVKEVPEEYSERFSPQARSLCSQLLCKDPAERLGCRGGSAREVKEHPLFKKLNFKRLGAGMLEPPFKPDPQAIYCKDVLDIEQFSTVKGVELEPTDQDFYQKFATGSVPIPWQNEMVETECFQELNVFGLDGSVPPDLDWKGQPPAPPKKGLLQRLFSRQDCCGNCSDSEEELPTRL
S129 phosphorylation in vitro, normalised by activity units: The most prominent result came from GRK6
S129 phosphorylation, immunoblot (11A5), kinase:AS 1:200 molar: Prominent signals came from GRK6, CKI, CKII and PLK2
S129 phosphorylation, immunoblot (11A5), rank of signal: CKI>GRK6>PLK2>GRK4>GRK5>GRK2
in vitro kinase reaction, phosphorylation of alpha-synuclein at serine 129: capable of phosphorylating alpha-synuclein specifically at serine 129 and did not phosphorylate serine 87 in vitro
phospho ser-129 level in vitro, normalised for molarity: roughly equivalent levels of phospho ser-129 between CKI, GRK6 and PLK2
